Data reported in article PMC8654964, “Centrosome dysfunction associated with somatic expression of the synaptonemal complex protein TEX12” (Communications Biology, 2021).

Biological target: the molecule itself
Assay: SEC-MALS; Superdex 200 Increase 10/300 GL, 20 mM Tris pH 8.0, 150 mM KCl, 2 mM DTT, 0.5 ml/min; TEX12 loaded at 12 mg/ml, TEX12core at 4 mg/ml; self-association (homodimer)

B1: TEX12core (human TEX12 amino acids 49-123) (domain or fragment, UniProt Q9BXU0 49-123, looked up)
chain: KDEALEKDLNDVSKEINLMLSTYAKLLSERAAVDASYIDEIDELFKEANAIENFLIQKREFLRQRFTVIANTLHR
notes: Human TEX12, alpha-helical structural core, amino acids 49-123; Cloned into pMAT11 as a His6-MBP fusion with a TEV site; also called structural core (49-123); source: E. coli BL21(DE3), purified (Ni-NTA, amylose, TEV cleavage, anion exchange); not shown: His6, N-terminal, cleaved; MBP, N-terminal, cleaved
  stoichiometry N: 2

B2: TEX12 (human, full length, amino acids 1-123) (natural protein, UniProt Q9BXU0 1-123, looked up)
chain: MMANHLVKPDNRNCKRPRELESPVPDSPQLSSLGKSDSSFSEISGLFYKDEALEKDLNDVSKEINLMLSTYAKLLSERAAVDASYIDEIDELFKEANAIENFLIQKREFLRQRFTVIANTLHR
notes: Human TEX12, synaptonemal complex central element protein, amino acids 1-123 (full length); Cloned into pMAT11 as a His6-MBP fusion with a TEV site; also called recombinant human TEX12; source: E. coli BL21(DE3), purified (Ni-NTA, amylose, TEV cleavage, anion exchange); not shown: His6, N-terminal, cleaved; MBP, N-terminal, cleaved
  stoichiometry N: 2
